Experimental data published in patent publication US6770740B1, “Crosslinked DNA condesate compositions and gene delivery methods” (The Regents of the University of Michigan, priority 1999, dated 2004).
One block for each substance: values may come before it.

Tests used:
[1] = QELS particle size and zeta potential of peptide DNA condensates, Example 6; format: physicochemical; conditions: charge ratio 4:1, 50 μg/ml DNA in HBM; for Particle Size (nm): 90°, average and SD of three, No particles formed; for Zeta Potential (mV): average and SD of ten
Protocol: The particle size and zeta potential of peptide DNA condensates were determined by quasielastic light scattering (QELS) using a Brookhave ZetaPlus™. Particle size analysis was performed in triplicate at a DNA concentration of 50 μg/ml in HBM at a charge ratio of 4:1 and a scattering angle of 90°. Data analysis utilized a multimodal volume distribution option included with the instrument. Zeta potential was also determined using 50 μg/ml peptide DNA condensates prepared at a 4:1 charge ratio in HBM. The reported zeta potential was averaged from ten determinations.

[2] = system: plasmid DNA; assay: Thiazole orange displacement titration of peptide binding to DNA, Example 6; conditions: titration across charge ratios 0.25-8
Protocol: Peptide DNA condensates were prepared by combining 50 μg of DNA in 500 μl of Hepes buffered mannitol (HBM) (5 w/v% mannitol, 5 mM Hepes, pH 7.5) with […] of peptide in 500 μl of HBM while vortexing to form peptide DNA condensates with a calculated primary amine to phosphate charge ratio between 0.25 and 8.0 (NH4^+:PO4). The condensates were allowed to cross-link for 30 min prior to performing physical measurements. The binding of each peptide to DNA was assayed by combining peptide DNA condensates (50 μl) with 950 μl of HBM containing 0.1 μM thiazole orange. The fluorescence of the intercalated dye was measured using an LS50B fluorometer (Perkin Elmer, UK) by exciting at 500 nm while monitoring emission at 530 nm with the slit width set at 15 and 20 nm, respectively. Fluorescence blanks were substracted from all values before data analysis.

[3] = Shear stress stability (salt sonication assay), Example 6; format: physicochemical; conditions: 30 sec sonication; highest tested 2.5 M
Protocol: The relative stability of peptide DNA condensates were examined using a salt sonication assay (Adami and Rice, 1999). Peptide DNA condensates (200 μl of 50 μg/ml) were formed as described above, incubated at RT for 30 min and then combined with 0-200 μl of 5 m […] and normalized to 400 μl with HBM to achieve a final sodium chloride concentration of 0, 0.2, 0.4, 0.8, 1.0, 1.5, 2.0 and 2.5 M. Each sample was sonicated for 30 sec with a 100 W Microson™ XL-2000 ultrasonic probe homogenizer (Kontes, Vineland N.J.) with a vibrational amplitude of 5 fragment uncondensed DNA. DNA condensates were digested with 30 μg to trypsin for 12 h at 37° C., electrophoresed on a 1% agarose gel electrophoresed in TEA buffer for 2 h, then visualized by ethidium bromide staining and destaining prior to photography on a transilluminator.

[4] = system: HepG2 cells; assay: Luciferase gene expression in HepG2 cells, Example 6; format: cell-based; conditions: HepG2, absence of chloroquine
Protocol: HepG2 cells (1.5×10^5) were plated on 6×35 mm wells and grown to 50% confluencey in MEM supplemented with 10% FBS, penicillin and streptomycin (100 U/ml), sodium pyruvate (100 mM), and L-glutamine (2 mM). Transfections were performed in MEM (2 ml per 35 mm well) with 2% FBS with and without 80 μM chloroquine. Peptide DNA condensates (10 μg of DNA of 0.2 ml HBM) were added dropwise to triplicate wells. After a 5 h incubation at 37° C., the medium was replaced with MEM supplemented with 10% FBS. After 24 h, cells were washed with ice-cold phosphate buffered saline (calcium and magnesium free) and then treated with 0.5 ml of ice-cold lysis buffer (25 mM) Tris chloride pH 7.8, 1 mM EDTA, 8 mM magnesium chloride, 1% Triton X-100, 1 mM DTT) for 10 min. The cell lysates were scraped, transferred to 1.5 ml microcentrifuge tube, and centrifuged for 7 min at 13,000 g at 4° C. to pellet debris.
Lysis buffer (300 μl), sodium-ATP (4 μl of a 180 mM solution, pH 7, 4° C.) and cell lysate (100 μl, 4° C.) were combined in a test tube, briefly mixed and immediately placed in the luminometer. Luciferase relative light units (RLU) were recorded on a Lumat™ LB 9501 (Berthoid Systems, Germany) with 10 sec integration after automatic injection of 100 μl of 0.5 mM D-luciferin (prepared fresh in lysis buffer without DTT). The RLU were converted into fmol using a standard curve generated by adding a known amount of luciferase (0.01 to 100 fmols with specific activity of 2.5 nU/fmol) to 35 mm wells containing 50% confluent cells and lysis buffer. Protein concentrations were measured by Bradford assay using bovine serum albumin as a standard (Bradford, 1976). […]
LipofectAce™ (Gibco BRL, 1:2.5 w/w dimethyl dioctadecylammonium bromide and dioleoyl phosphatidylethanolamine) was used to mediate gene transaction according to the manufacturer's instructions. […] The cells were incubated for a total of 24 h, harvested and analyzed for luciferase as described above.

[5] = QELS particle size and zeta potential of cross-linking peptide DNA condensates, Example 5; format: physicochemical; conditions: for Particle Size Mean Diameter, Oxidized, 15° / Particle Size Mean Diameter, Oxidized, 90°: HBM after 2 h incubation, 50 μg/ml DNA, 0.4 nmol peptide per μg DNA; for Particle Size Mean Diameter, Oxidized, 15°: scattering angle 15°; for Particle Size Mean Diameter, Oxidized, 90°: scattering angle 90°; for Particle Size Mean Diameter, Saline: HBM with added saline (0.15 M) after 15 min; for Particle Size Mean Diameter, Reduced: following addition of TCEP (1 mM)
Protocol: The particle size of each peptide DNA condensate was determined by quasielastic light scattering (QELS) at a scatter angle of both 15° and 90° on a Brookhaven ZetaPlus™ particle sizer. Condensates were prepared at a DNA concentration of 50 μg/ml in 400 μl HBM at a stoichiometry of 0.4 nmol of peptide per μg of DNA corresponding to a charge ratio of approximately 2:1 for each. The mean diameter and population distribution were computed from the diffusion coefficient using a unimodal cummulant analysis supplied by the manufacturer.
The particle size and zeta peptide IV DNA condensates were determined by titrating 7.5 to 37.5 nmol of peptide with 75 μg of DNA in 1.5 ml of HBM to produce 50 μg/ml DNA condensates with charge ratio of 0.5-2.5. The zeta potential was averaged from 10 determines.

[6] = Shear stress stability of cross-linked DNA condensates (salt sonication), Example 5; format: physicochemical; conditions: charge ratio of 0.9
Protocol: Peptide DNA condensates (200 μl of 50 μg/ml) were formed and incubated at RT for 30 min and then combined with 0 to 200 μl of 5 M sodium chloride and normalized to 400 μl with HBM to achieve a final sodium chloride concentration of 0, 0.2, 0.4, 0.8, 1.0, 1.5, 2.0, and 2.5 M. Each sample was sonicated for 30 sec with a 100 W Microson™ XL-2000 ultrasonic probe homogenizer (Kontes, Vineland N.J.) with a vibrational amplitude of 6 to fragment uncondensed DNA (Adami et al., 1998). DNA condensates were digested with 30 μg of trypsin for 12 h at 37° C. then electrophoresed on an agarose gel and visualized by ethidium bromide staining.

Substance: Cys-(His-Lys)4-Cys (CHKHKHKHKC) [Peptide 15]
Particle Size (nm) [1]: 205 ± 104 nm
Zeta Potential (mV) [1]: 23 ± 1 mV

charge ratio (NH4+:PO4) needed to condense DNA (thiazole orange fluorescence minimum) [2]: > 8
Substance: Cys-(Lys)2-Cys (CKKC) [Peptide 4]

Substance: Cys-(Lys)2-Cys-(Lys)2-Cys (CKKCKKC) [Peptide 9]
sodium chloride concentration up to which DNA condensates are stable [3]: 1.5 M
Particle Size (nm) [1]: 1668 ± 154 nm

Substance: Cys-(Lys)3-Cys-(Lys)3-Cys (CKKKCKKKC) [Peptide 10]
sodium chloride concentration up to which DNA condensates are stable [3]: 2.5 M
Particle Size (nm) [1]: 1375 ± 324 nm
Zeta Potential (mV) [1]: 34 ± 2 mV

Substance: Cys-(Lys)4-Cys-(Lys)4-Cys (CKKKKCKKKKC) [Peptide 11]
sodium chloride concentration up to which DNA condensates are stable [3]: 2.5 M
Particle Size (nm) [1]: 738 ± 154 nm
Zeta Potential (mV) [1]: 31 ± 3 mV

charge ratio (NH4+:PO4) needed to condense DNA (thiazole orange fluorescence minimum) [2]: 2
Substance: Cys-(Lys)6-Cys (CKKKKKKC) [Peptide 6]
Particle Size (nm) [1]: 52 ± 4 nm
Zeta Potential (mV) [1]: 37 ± 1 mV

Substance: Cys-His-(Lys)3-His-(Lys)2-His-Cys (CHKKKHKKHC) [Peptide 14]
higher gene expression compared to peptide 7 DNA condensates [4]: 4 fold
Particle Size (nm) [1]: 183 ± 64 nm
Zeta Potential (mV) [1]: 20 ± 2 mV

Substance: Cys-His-(Lys)6-His-Cys (CHKKKKKKHC) [Peptide 13]
higher gene expression compared to peptide 7 DNA condensates [4]: 4 fold
Particle Size (nm) [1]: 97 ± 40 nm
Zeta Potential (mV) [1]: 31 ± 1 mV

Substance: Cys-His-Lys-His-Lys-(His)2-Lys-His-Cys (CHKHKHHKHC) [Peptide 16]
Particle Size (nm) [1]: 320 ± 169 nm
Zeta Potential (mV) [1]: 23 ± 1 mV

charge ratio (NH4+:PO4) needed to condense DNA (thiazole orange fluorescence minimum) [2]: 6-8
Substance: Cys-Lys-Cys-Lys-Cys (CKCKC; printed: Cys-Lys-Cys-Lys-Cys) [Peptide 8]

Particle Size Mean Diameter, Oxidized, 15° [5]: 57 nm
Particle Size Mean Diameter, Oxidized, 90° [5]: 44 nm
Particle Size Mean Diameter, Saline [5]: 324 nm
particle size of electronegative DNA condensates ([5]; charge ratio of 0.9): 62 nm
zeta potential of electronegative DNA condensates ([5]; charge ratio of 0.9): −18 mV
Particle Size Mean Diameter, Reduced [5]: 158 nm
sodium chloride concentration up to which fragmentation was resisted [6]: 2.5 M
Substance: Cys-Trp-Lys5-Cys-Lys5-Cys-Lys5-Cys [Peptide IV]

Substance: Cys-Trp-Lys8-Cys-Lys8-Cys (CWKKKKKKKKCKKKKKKKKC) [III]
Particle Size Mean Diameter, Oxidized, 15° [5]: 26 nm
Particle Size Mean Diameter, Oxidized, 90° [5]: 39 nm
Particle Size Mean Diameter, Saline [5]: 157 nm
Particle Size Mean Diameter, Reduced [5]: 136 nm
